According to patent US20030207290A1:
Where no end group is shown, it is not given here.

How the values were obtained:
[1] = molecular target: T1, EGFR-pY1068 phosphopeptide, LPVPE(p)…; test: ECL 7-spot plate screen, peptide-BSA spot, biotinylated TnT protein, Ru-streptavidin; signal normalized in two steps
T1 sequence (peptide, phosphotyrosine at (p)Y (residue 6 of the printed peptide; EGFR Tyr1068)): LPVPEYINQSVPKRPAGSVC

BSA (control coating) = BSA (control coating) (UniProt P02769); test: ECL plate binding assay: BSA control on electrode, biotinylated TnT protein, Sulfo-TAG streptavidin
[2] = molecular target: Pool A of peptide:BSA conjugates (EGFR-pTyr1148, IkBa-24ppC, Myc-p58Tp62S); test: ECL 4-spot binding assay with pooled peptide-BSA conjugates, biotinylated TnT protein, Sulfo-TAG streptavidin
[3] = molecular target: Pool B of peptide:BSA conjugates (EGFR-pTyr992, EGFR-pTyr1148, Smad3C); test: as above
[4] = molecular target: Pool C of peptide:BSA conjugates (EGFR-pTyr1068, IkBa-24ppC, Smad3C); test: as above
[5] = molecular target: Pool D of peptide:BSA conjugates (EGFR-pTyr992, EGFR-pTyr1068, Myc-p58Tp62S); test: as above
[6] = molecular target: Grb2 (EST clone IMAGE 4398016), in vitro translated, biotin-labelled (UniProt P62993); test: competition: immobilized Grb2, +EGFR, un-phosphorylated peptide in solution; bound EGFR detected by its kinase activity on pEY
Sequence of Grb2 (EST clone IMAGE 4398016), in vitro translated, biotin-labelled (P62993 whole entry): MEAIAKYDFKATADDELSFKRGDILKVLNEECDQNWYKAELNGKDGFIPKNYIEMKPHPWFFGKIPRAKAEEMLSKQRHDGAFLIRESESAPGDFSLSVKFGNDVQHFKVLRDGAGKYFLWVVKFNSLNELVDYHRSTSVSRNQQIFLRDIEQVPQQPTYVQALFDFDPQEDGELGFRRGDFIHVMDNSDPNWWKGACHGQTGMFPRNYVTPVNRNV

Sequence of BSA (control coating) (P02769 25-607 limits assumed): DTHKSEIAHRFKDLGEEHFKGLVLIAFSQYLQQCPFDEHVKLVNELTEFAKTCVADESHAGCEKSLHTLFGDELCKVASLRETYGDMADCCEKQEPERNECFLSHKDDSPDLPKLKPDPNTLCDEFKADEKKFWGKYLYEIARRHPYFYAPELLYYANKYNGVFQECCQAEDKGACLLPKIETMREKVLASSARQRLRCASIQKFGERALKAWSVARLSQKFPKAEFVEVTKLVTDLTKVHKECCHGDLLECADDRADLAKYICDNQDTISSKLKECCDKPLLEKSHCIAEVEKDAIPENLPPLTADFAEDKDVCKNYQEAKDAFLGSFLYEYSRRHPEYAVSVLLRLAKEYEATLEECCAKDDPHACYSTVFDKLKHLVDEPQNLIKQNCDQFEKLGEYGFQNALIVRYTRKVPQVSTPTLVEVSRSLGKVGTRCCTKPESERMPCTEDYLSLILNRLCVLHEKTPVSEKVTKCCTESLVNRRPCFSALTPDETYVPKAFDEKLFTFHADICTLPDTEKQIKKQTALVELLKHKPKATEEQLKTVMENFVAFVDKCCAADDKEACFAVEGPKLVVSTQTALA

B1: BMX non-receptor tyrosine kinase (EST clone IMAGE 3919253), in vitro translated, biotin-labelled (enzyme, UniProt P51813 1-675, looked up)
chain: MDTKSILEELLLKRSQQKKKMSPNNYKERLFVLTKTNLSYYEYDKMKRGSRKGSIEIKKIRCVEKVNLEEQTPVERQYPFQIVYKDGLLYVYASNEESRSQWLKALQKEIRGNPHLLVKYHSGFFVDGKFLCCQQSCKAAPGCTLWEAYANLHTAVNEEKHRVPTFPDRVLKIPRAVPVLKMDAPSSSTTLAQYDNESKKNYGSQPPSSSTSLAQYDSNSKKIYGSQPNFNMQYIPREDFPDWWQVRKLKSSSSSEDVASSNQKERNVNHTTSKISWEFPESSSSEEEENLDDYDWFAGNISRSQSEQLLRQKGKEGAFMVRNSSQVGMYTVSLFSKAVNDKKGTVKHYHVHTNAENKLYLAENYCFDSIPKLIHYHQHNSAGMITRLRHPVSTKANKVPDSVSLGNGIWELKREEITLLKELGSGQFGVVQLGKWKGQYDVAVKMIKEGSMSEDEFFQEAQTMMKLSHPKLVKFYGVCSKEYPIYIVTEYISNGCLLNYLRSHGKGLEPSQLLEMCYDVCEGMAFLESHQFIHRDLAARNCLVDRDLCVKVSDFGMTRYVLDDQYVSSVGTKFPVKWSAPEVFHYFKYSSKSDVWAFGILMWEVFSLGKQPYDLYDNSQVVLKVSQGHRLYRPHLASDTIYQIMYSCWHELPEKRPTFQQLLSSIEPLREKDKH
modifications: biotin on some lysine residues (incorporated at random from biotin-Lys-tRNA)
With B1 the normalized ECL signal [1] was 3.

B2: Shc1 (EST clone IMAGE 3907115), in vitro translated, biotin-labelled (protein, UniProt P29353-2 1-473, looked up)
chain: MNKLSGGGGRRTRVEGGQLGGEEWTRHGSFVNKPTRGWLHPNDKVMGPGVSYLVRYMGCVEVLQSMRALDFNTRTQVTREAISLVCEAVPGAKGATRRRKPCSRPLSSILGRSNLKFAGMPITLTVSTSSLNLMAADCKQIIANHHMQSISFASGGDPDTAEYVAYVAKDPVNQRACHILECPEGLAQDVISTIGQAFELRFKQYLRNPPKLVTPHDRMAGFDGSAWDEEEEEPPDHQYYNDFPGKEPPLGGVVDMRLREGAAPGAARPTAPNAQTPSHLGATLPVGQPVGGDPEVRKQMPPPPPCPGRELFDDPSYVNVQNLDKARQAVGGAGPPNPAINGSAPRDLFDMKPFEDALRVPPPPQSVSMAEQLRGEPWFHGKLSRREAEALLQLNGDFLVRESTTTPGQYVLTGLQSGQPKHLLLVDPEGVVRTKDHRFESVSHLISYHMDNHLPIISAGSELCLQQPVERKL
modifications: biotin on some lysine residues (incorporated at random from biotin-Lys-tRNA)
B2 gave an Average ECL signal (BSA (control coating)) of 342 ECL signal, an ECL signal [2] of 260 ECL signal and an ECL signal [3] of 318 ECL signal. For the same binder, the ECL signal [4] was 24 ECL signal and the ECL signal [5] was 26 ECL signal.

B3: Phospholipase C gamma 1 (PLCγ) (EST clone IMAGE 4419252), in vitro translated, biotin-labelled (enzyme, UniProt P19174 1-1290, looked up)
chain: MAGAASPCANGCGPGAPSDAEVLHLCRSLEVGTVMTLFYSKKSQRPERKTFQVKLETRQITWSRGADKIEGAIDIREIKEIRPGKTSRDFDRYQEDPAFRPDQSHCFVILYGMEFRLKTLSLQATSEDEVNMWIKGLTWLMEDTLQAPTPLQIERWLRKQFYSVDRNREDRISAKDLKNMLSQVNYRVPNMRFLRERLTDLEQRSGDITYGQFAQLYRSLMYSAQKTMDLPFLEASTLRAGERPELCRVSLPEFQQFLLDYQGELWAVDRLQVQEFMLSFLRDPLREIEEPYFFLDEFVTFLFSKENSVWNSQLDAVCPDTMNNPLSHYWISSSHNTYLTGDQFSSESSLEAYARCLRMGCRCIELDCWDGPDGMPVIYHGHTLTTKIKFSDVLHTIKEHAFVASEYPVILSIEDHCSIAQQRNMAQYFKKVLGDTLLTKPVEISADGLPSPNQLKRKILIKHKKLAEGSAYEEVPTSMMYSENDISNSIKNGILYLEDPVNHEWYPHYFVLTSSKIYYSEETSSDQGNEDEEEPKEVSSSTELHSNEKWFHGKLGAGRDGRHIAERLLTEYCIETGAPDGSFLVRESETFVGDYTLSFWRNGKVQHCRIHSRQDAGTPKFFLTDNLVFDSLYDLITHYQQVPLRCNEFEMRLSEPVPQTNAHESKEWYHASLTRAQAEHMLMRVPRDGAFLVRKRNEPNSYAISFRAEGKIKHCRVQQEGQTVMLGNSEFDSLVDLISYYEKHPLYRKMKLRYPINEEALEKIGTAEPDYGALYEGRNPGFYVEANPMPTFKCAVKALFDYKAQREDELTFIKSAIIQNVEKQEGGWWRGDYGGKKQLWFPSNYVEEMVNPVALEPEREHLDENSPLGDLLRGVLDVPACQIAIRPEGKNNRLFVFSISMASVAHWSLDVAADSQEELQDWVKKIREVAQTADARLTEGKIMERRKKIALELSELVVYCRPVPFDEEKIGTERACYRDMSSFPETKAEKYVNKAKGKKFLQYNRLQLSRIYPKGQRLDSSNYDPLPMWICGSQLVALNFQTPDKPMQMNQALFMTGRHCGYVLQPSTMRDEAFDPFDKSSLRGLEPCAISIEVLGARHLPKNGRGIVCPFVEIEVAGAEYDSTKQKTEFVVDNGLNPVWPAKPFHFQISNPEFAFLRFVVYEEDMFSDQNFLAQATFPVKGLKTGYRAVPLKNNYSEDLELASLLIKIDIFPAKENGDLSPFSGTSLRERGSDASGQLFHGRAREGSFESRYQQPFEDFRISQEHLADHFDSRERRAPRRTRVNGDNRL
modifications: biotin on some lysine residues (incorporated at random from biotin-Lys-tRNA)
For B3, the Average ECL signal (BSA (control coating)) was 342 ECL signal, the ECL signal [2] was 239 ECL signal and the ECL signal [3] was 2780 ECL signal. For the same binder, the ECL signal [4] was 1550 ECL signal and the ECL signal [5] was 3390 ECL signal.

LPVPEYINQSVPKRPAGSVC (not fully specified) [un-phosphorylated EGFR 1063-1081 peptide (Peptide, SEQ ID No. 8)] was tested, and the ECL signal of EGFR bound to Grb2 in presence of the peptide [6] was 34100 ECL signal.
